Reference: patent US20050069869A1 (UNIVERSITY OF MASSACHUSETTS, published 2005)

Experiments:
[1] = molecular target: S(1255), full length S protein with transmembrane and cytoplasmic domains, on transfected HEK 293 cells (SARS-CoV, UniProt P59594 15-1190); test: FACS on HEK 293 cells transfected with S(1255); given as ED50
[2] = molecular target: S(470), amino acids 1-470 of the SARS-CoV S protein (SARS-CoV, UniProt P59594 15-470); test: immunoprecipitation from culture supernatant, Western blot with anti-His6
[3] = molecular target: T1, S(150), amino acids 1-150 of the SARS-CoV S protein (SARS-CoV, UniProt P59594 15-150); test: as above
T1 sequence: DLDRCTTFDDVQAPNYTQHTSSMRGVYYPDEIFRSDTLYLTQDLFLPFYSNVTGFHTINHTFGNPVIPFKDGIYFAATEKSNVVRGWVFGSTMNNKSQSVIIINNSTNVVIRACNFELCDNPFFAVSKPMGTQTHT

[4] = molecular target: T2, S(269), amino acids 1-269 of the SARS-CoV S protein (SARS-CoV, UniProt P59594 15-269); test: as above
T2 sequence: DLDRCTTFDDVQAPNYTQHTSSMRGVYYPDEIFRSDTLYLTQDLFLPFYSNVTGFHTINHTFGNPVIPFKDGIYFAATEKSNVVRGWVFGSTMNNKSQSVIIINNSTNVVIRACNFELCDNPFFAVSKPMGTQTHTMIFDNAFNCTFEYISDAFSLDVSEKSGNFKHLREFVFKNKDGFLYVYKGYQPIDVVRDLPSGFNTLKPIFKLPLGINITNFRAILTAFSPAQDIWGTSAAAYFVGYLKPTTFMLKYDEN

[5] = molecular target: T3, S(170), amino acids 1-170 of the SARS-CoV S protein (SARS-CoV, UniProt P59594 15-170); test: as above
T3 sequence: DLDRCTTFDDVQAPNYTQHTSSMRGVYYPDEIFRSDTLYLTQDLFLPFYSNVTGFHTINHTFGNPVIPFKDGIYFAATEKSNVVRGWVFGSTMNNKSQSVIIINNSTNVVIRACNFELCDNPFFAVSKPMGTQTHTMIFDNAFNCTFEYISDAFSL

[6] = molecular target: S(490), amino acids 1-490 of the SARS-CoV S protein (SARS-CoV, UniProt P59594 15-490); test: as above
[7] = molecular target: T4, S(130), amino acids 1-130 of the SARS-CoV S protein (SARS-CoV, UniProt P59594 15-130); test: as above
T4 sequence: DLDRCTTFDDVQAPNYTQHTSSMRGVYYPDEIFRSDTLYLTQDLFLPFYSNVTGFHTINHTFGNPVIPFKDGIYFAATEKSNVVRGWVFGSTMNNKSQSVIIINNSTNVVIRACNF

[8] = molecular target: SARS-CoV S protein of the virus (Urbani strain; virions and infected Vero cell extracts) (SARS-CoV, UniProt P59594 15-1190); test: cell-based or functional assay
[9] = molecular target: S(590), N-terminal 590 amino acids of the SARS-CoV S protein (SARS-CoV, UniProt P59594 15-590); test: FACS; inhibition of myc-tagged S(590) binding to Vero E6 cells

B1: human monoclonal antibody 201.2 (antibody, V domains shown)
VH: EVQLVQSGGGLVHPGGSLRLSCAGSGFTFSSYDMHWVRQAPGKGLEWVSVVGTGDGTYYADSVKGRFTISRDNAKNSLYLQMNSLRAEDMAVYYCARDQWWGSDYWGQGTLVTVSS
VL: EIVLTQSPATLSLSPGERATLSCRASQSVSSYLAWYQQKPGQAPRLLIYDASNRATGIPARFSGSGSGTDFTLTISSLEPEDFAVYYCQQRSNWPLTFGGGTKVEIK
notes: also called 508-201; 7-508-201
Question: B1 was tested. Which EC50 [1] did it give?
Answer: The EC50 was 6 nM.

Question: Does B1 bind [2]?
Answer: Result: no binding

Question: Does B1 bind [3]?
Answer: Result: no binding

Question: Does B1 bind [4]?
Answer: Result: no binding

Question: Does B1 bind [5]?
Answer: Result: no binding

Question: Does B1 bind [6]?
Answer: Result: no binding

Question: Does B1 bind [7]?
Answer: Result: no binding

Question: And the “Viral Neut. in vitro (IC50, nM)” value [8]?
Answer: The value was 0.7 nM.

Question: And the IC50 [9]?
Answer: Its IC50 is 2 nM.
